Assay results published in patent publication US20080014599A1 (published 2008).
Blank lines part the entries; values can stand above or below the binder they belong to.

Experiments:
TSC2 [1] = target: T1, TSC2 (human, UniProt P49815 1-1807, limits assumed); test: co-IP with anti-FLAG from 293T extracts (FIG. 34)
T1 construct: Untagged TSC2 in 293T cell extracts, endogenous or from a transfected TSC2 cDNA; Some extracts of the pull-downs may hold HA-TSC2; also called tuberin; endogenous TSC2
Method: Description: 293T cells were transiently transfected with either empty plasmid or with plasmid containing FLAG-hRTP801 or FLAG-hRTP801-L (REDD2) cDNAs. 48 hrs. post-transfection, cobalt chloride (150 uM) was added (or omitted) for another 24 hrs. Cytosolic extracts prepared and IP was done using anti-FLAG antibodies. Alternatively, 293T cells were transiently transfected with plasmid containing FLAG-hRTP801 cDNA and plasmid containing TSC1 or TSC2 cDNAs or both. 48 hrs. post transfection, cobalt chloride (150 uM) was added for another 24 hrs. Cytosolic extracts prepared and IP was done using anti-TSC1, anti-TSC2 or normal rabbit IgG (NRIgG) antibodies. Alternatively, 293T cells were transiently transfected with either empty plasmid,plasmid containing FLAG-hRTP801 cDNA and plasmids containing either TSC1 and/or TSC2 cDNAs. 48 hrs. post transfection, cobalt chloride (150 uM) was added for another 24 hrs. Cytosolic extracts prepared and IP was done using anti-FLAG antibodies.

[2] = target: T2, HA-SV5-full length hRTP801 (human, UniProt Q9NX09 1-232); test: co-IP with M2 anti-FLAG resin from 293T HEK extracts, immunoblot (FIG. 21)
T2 construct: Full length, expressed in transfected 293T HEK cells; also called HA-SV5-hRTP801; HA-full length hRTP801; not shown: HA and SV5 tags
T2 sequence: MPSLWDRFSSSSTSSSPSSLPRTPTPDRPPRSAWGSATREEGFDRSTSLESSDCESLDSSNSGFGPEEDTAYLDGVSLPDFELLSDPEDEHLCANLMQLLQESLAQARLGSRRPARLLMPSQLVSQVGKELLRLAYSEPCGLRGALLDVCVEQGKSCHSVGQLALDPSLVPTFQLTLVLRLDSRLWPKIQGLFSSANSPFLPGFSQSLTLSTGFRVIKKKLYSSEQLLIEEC
Method: 293T HEK cells were co-transfected with a plasmid containing cDNA of HA-SV5-full length hRTP801 (“Prey”) as well as plasmid containing cDNA of one of the following: FLAG-full length hRTP801, FLAG-(C) hRTP801, FLAG-(N-C1) hRTP801, FLAG-(N-C1) hRTP801, FLAG-(N-C2)hRTP801 and FLAG-(C3) hRTP801. Forty-eight hours after transfection, cells were treated with 150 uM cobalt chloride for 18 hrs to mimick hypoxic stress conditions. The next day, cytosolic extracts were made by mechanic lysis under hypotonic conditions. FLAG-tagged bait proteins were immunoprecipitated with M2 anti-FLAG resin (Sigma). Following extensive washing, immunoprecipitated material was analyzed by immunblotting with either anti-hRTP801 polyclonal antibodies (proprietary) or with anti-SV5 polyclonal antibodies (AbCam).

HA-tagged TSC2 (HA-TSC2) = target: T3, HA-tagged TSC2 (HA-TSC2) (human, UniProt P49815 1-1807); test: co-IP with anti-FLAG from transfected 293T post-nuclear supernatant (FIG. 25)
T3 construct: Expressed in transfected 293T cells; also called full length HA-tagged TSC2; not shown: HA tag
Method: TSC2 region that binds hRTP801 (FIG. 25). Human TSC2 HA-tagged “N” and “C” fragments (FIG. 25, upper panel) as well as full length HA-tagged TSC2 were transfected into 293T cells along with FLAG-hRTP801 or with empty vector. Forty-eight hours after transfection, the cells were treated with CoCl₂ for overnight. Cells were harvested and post-nuclear supernatant was prepared and used for IP with anti-FLAG antibodies. […] Similar results are achieved with RTP801L

[3] = target: T4, HA-tagged TSC2 “N” fragment (a.a. 2-935) (human, UniProt P49815 2-935); test: co-IP with anti-FLAG, anti-HA blot (FIG. 17)
T4 construct: Printed as a.a; also called HA-“N” fragment of TSC2; not shown: HA tag
Method: Cytosolic extracts were prepared and IP was done using anti-FLAG antibodies. Analysis of the immnocomplexes was done with anti-HA.

TSC2 [4] = target: T1, TSC2; test: in vitro pull-down from extract with 6× His baits (FIG. 13)

T1 sequence (P49815 other isoform, or with tags, fused parts or gaps limits assumed): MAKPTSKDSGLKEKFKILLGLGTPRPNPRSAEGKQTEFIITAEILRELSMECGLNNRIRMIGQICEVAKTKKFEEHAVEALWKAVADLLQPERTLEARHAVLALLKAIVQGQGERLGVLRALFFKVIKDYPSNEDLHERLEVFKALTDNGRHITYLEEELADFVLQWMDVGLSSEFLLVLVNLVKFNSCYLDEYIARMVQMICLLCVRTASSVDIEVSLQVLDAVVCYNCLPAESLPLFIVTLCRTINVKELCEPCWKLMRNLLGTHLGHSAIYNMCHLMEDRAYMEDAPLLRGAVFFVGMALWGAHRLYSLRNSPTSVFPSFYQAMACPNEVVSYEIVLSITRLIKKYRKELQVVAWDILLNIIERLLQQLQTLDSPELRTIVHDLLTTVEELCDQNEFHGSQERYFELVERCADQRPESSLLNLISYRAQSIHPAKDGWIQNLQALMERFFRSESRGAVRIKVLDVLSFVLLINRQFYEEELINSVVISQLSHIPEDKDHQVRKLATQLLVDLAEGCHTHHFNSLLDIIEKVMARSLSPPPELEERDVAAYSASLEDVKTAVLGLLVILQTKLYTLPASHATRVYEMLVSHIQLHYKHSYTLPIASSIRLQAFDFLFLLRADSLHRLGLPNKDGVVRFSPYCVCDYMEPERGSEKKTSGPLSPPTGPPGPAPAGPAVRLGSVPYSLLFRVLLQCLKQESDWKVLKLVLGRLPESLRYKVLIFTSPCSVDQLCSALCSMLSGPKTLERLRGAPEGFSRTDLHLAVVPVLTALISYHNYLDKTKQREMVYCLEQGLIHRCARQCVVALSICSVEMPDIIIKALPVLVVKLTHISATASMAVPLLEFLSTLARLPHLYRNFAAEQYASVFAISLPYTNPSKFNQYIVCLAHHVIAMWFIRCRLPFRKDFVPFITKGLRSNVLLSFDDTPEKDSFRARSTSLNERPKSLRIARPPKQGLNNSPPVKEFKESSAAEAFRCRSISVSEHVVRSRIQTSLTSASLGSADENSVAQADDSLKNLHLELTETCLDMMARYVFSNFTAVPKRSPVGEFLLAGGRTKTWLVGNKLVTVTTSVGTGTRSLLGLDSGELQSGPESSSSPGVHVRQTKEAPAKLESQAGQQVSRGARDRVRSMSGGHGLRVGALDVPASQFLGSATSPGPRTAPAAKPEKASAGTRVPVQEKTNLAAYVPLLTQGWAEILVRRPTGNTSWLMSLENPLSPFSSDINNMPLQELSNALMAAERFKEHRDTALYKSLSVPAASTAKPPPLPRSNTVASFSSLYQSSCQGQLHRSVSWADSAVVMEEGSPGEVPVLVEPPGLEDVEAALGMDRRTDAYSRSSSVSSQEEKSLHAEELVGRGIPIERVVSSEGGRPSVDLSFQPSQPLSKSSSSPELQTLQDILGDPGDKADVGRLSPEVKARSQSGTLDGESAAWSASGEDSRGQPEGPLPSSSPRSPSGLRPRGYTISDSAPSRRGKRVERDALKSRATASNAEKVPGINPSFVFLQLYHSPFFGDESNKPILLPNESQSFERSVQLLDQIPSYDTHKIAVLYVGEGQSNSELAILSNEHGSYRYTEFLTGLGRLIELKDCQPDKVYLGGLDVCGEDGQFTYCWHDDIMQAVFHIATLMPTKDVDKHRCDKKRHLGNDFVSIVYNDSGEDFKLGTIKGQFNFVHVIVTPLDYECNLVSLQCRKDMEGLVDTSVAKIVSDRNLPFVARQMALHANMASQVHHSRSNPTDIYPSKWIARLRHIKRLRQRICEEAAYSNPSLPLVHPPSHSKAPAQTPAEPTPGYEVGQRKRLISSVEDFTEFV
T4 sequence (P49815 other isoform, or with tags, fused parts or gaps): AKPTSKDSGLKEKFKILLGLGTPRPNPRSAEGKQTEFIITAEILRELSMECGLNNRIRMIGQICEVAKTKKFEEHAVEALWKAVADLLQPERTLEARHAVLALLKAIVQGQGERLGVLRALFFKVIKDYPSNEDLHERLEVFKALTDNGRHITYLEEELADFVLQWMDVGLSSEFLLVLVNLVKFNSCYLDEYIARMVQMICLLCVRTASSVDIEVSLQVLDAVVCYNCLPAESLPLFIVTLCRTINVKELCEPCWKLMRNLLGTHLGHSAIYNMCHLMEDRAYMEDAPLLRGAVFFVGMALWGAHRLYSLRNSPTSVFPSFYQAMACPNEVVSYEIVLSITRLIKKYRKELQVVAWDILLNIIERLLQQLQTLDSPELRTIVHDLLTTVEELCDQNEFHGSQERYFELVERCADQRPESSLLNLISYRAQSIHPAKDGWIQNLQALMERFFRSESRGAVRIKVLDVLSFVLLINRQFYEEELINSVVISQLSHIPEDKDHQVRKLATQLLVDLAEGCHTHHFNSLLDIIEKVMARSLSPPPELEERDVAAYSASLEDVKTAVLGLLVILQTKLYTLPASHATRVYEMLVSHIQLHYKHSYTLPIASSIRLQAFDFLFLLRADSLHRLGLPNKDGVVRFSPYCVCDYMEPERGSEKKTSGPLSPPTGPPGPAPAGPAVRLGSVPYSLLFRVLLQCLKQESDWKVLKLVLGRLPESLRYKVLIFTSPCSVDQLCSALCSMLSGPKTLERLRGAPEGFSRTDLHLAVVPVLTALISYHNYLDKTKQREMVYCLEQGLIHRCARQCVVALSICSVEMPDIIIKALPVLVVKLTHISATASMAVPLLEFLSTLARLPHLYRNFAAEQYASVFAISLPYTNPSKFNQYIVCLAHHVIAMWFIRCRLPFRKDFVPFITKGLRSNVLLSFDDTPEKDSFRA
T3 sequence (P49815 other isoform, or with tags, fused parts or gaps limits assumed): as the sequence (P49815 other isoform, or with tags, fused parts or gaps limits assumed) above

binding result (TSC2 [1]): binds
B1: FLAG-hRTP801-L (REDD2) (other)
chain: MVATGSLSSKNPASISELLDCGYHPESLLSDFDYWDYVVPEPNLNEVIFEESTCQNLVKMLENCLSKSKQTKLGCSKVLVPEKLTQRIAQDVLRLSSTEPCGLRGCVMHVNLEIENVCKKLDRIVCDSSVVPTFELTLVFKQENCSWTSFRDFFFSRGRFSSGFRRTLILSSGFRLVKKKLYSLIGTTVIEGS
notes: Expressed in transfected 293T cells; also called FLAG-RTP801L; not shown: FLAG tag

binding result [2]: binds
B2: FLAG-(N-C2)hRTP801 (other)
chain: MPSLWDRFSSSSTSSSPSSLPRTPTPDRPPRSAWGSATREEGFDRSTSLESSDCESLDSSNSGFGPEEDTAYLDGVSLPDFELLSDPEDEHLCANLMQLLQESLAQARLGSRRPARLLMPSQLVSQVGKELLRLAYSEPCGLRGALLDVCVEQGKSCHSVGQLALDPSLVPTFQLTLVLRLDSRLWPKIQGLFSS
notes: also called hRTP801 N-C2 fragment; hRTP801 N-C2 mutant; not shown: FLAG tag

binding result (HA-tagged TSC2 (HA-TSC2)): binds
binding result [3]: binds
binding result (TSC2 [1]): binds
B3: FLAG-hRTP801 (other)
chain: MPSLWDRFSSSSTSSSPSSLPRTPTPDRPPRSAWGSATREEGFDRSTSLESSDCESLDSSNSGFGPEEDTAYLDGVSLPDFELLSDPEDEHLCANLMQLLQESLAQARLGSRRPARLLMPSQLVSQVGKELLRLAYSEPCGLRGALLDVCVEQGKSCHSVGQLALDPSLVPTFQLTLVLRLDSRLWPKIQGLFSSANSPFLPGFSQSLTLSTGFRVIKKKLYSSEQLLIEEC
notes: Full length hRTP801 with FLAG tag, expressed in transfected 293T cells; also called FLAG-full length hRTP801; FLAG-tagged hRTP801; not shown: FLAG tag

binding result (TSC2 [4]): no binding
B4: 6× His hRTP801 N-fragment (other)
chain: MPSLWDRFSSSSTSSSPSSLPRTPTPDRPPRSAWGSATREEGFDRSTSLESSDCESLDSSNSGFGPEEDTAYLDGVSLPDFELLSDPE
notes: not shown: 6× His tag
